The source of these data is US10858688.

In the first experiment the target is microtubule in fixed and permeabilized Xenopus laevis XTC cells (Xenopus laevis). Nature of the experiment: single-molecule speckle (SiMS) TIRF imaging of EGFP-fused probe (cell lysate) on fixed, permeabilized XTC cells; exponential fit of speckle lifetimes.
Consider “APC fragment (amino acid residues 2781-2819 of sequence number 14), FLAG-EGFP fused at the N terminus”, for which the half-life is 0.027 s. As for “Tau isoform 3 (full length of sequence number 5, residues 1-383), FLAG-EGFP fused at the N terminus”, the half-life amounted to 0.11 s. “CLIP-170 fragment (amino acid residues 3-309 of sequence number 12), FLAG-EGFP fused at the N terminus” showed a half-life of 0.044 s. In turn, “APC fragment (amino acid residues 2536-2843 of sequence number 14), EGFP-3xFLAG fused at the C terminus” displayed a half-life of 0.1 s. In turn, “Tau isoform 4 (sequence number 6, residues 1-352), FLAG-EGFP fused at the N terminus” showed a half-life of 0.06 s. Turning to “MAP4 fragment (amino acid residues 1-908 of sequence number 4), FLAG-EGFP fused at the N terminus”, the half-life stood at 0.109 s. Consider “MAP4 fragment (amino acid residues 659-908 of sequence number 4), FLAG-EGFP fused at the N terminus”, for which the half-life is 0.106 s.

A further experiment has as its target intermediate filament in fixed and permeabilized Xenopus laevis XTC cells (Xenopus laevis). The experiment is described as above.
For the substance “Plectin-1 fragment (amino acid residues 3777-4684 of sequence number 8), FLAG-EGFP fused at the N terminus”, the half-life came out at 0.457 s. In turn, “Plectin-1 fragment (amino acid residues 4022-4364 of sequence number 8), FLAG-EGFP fused at the N terminus” displayed a half-life of 0.103 s. As to “Plectin-1 fragment (amino acid residues 4066-4364 of sequence number 8), FLAG-EGFP fused at the N terminus”, the half-life amounted to 7.7 s. Same read-out and setting: the figure for “Plectin-1 fragment (amino acid residues 3777-4313 of sequence number 8), FLAG-EGFP fused at the N terminus” is 0.052 s; for “Plectin-1 fragment (amino acid residues 3777-4364 of sequence number 8), FLAG-EGFP fused at the N terminus” it is 0.059 s.

In a further experiment the target is focal adhesion in fixed and permeabilized Xenopus laevis XTC cells (Xenopus laevis). The experiment is described as above.
Substance “Paxillin fragment (amino acid residues 167-557 of sequence number 15), FLAG-EGFP fused at the N terminus” yielded a half-life of 0.138 s. Consider “Paxillin fragment (amino acid residues 54-498 of sequence number 15), FLAG-EGFP fused at the N terminus”, for which the half-life turned out to be 0.091 s.

In the case of “Paxillin fragment (amino acid residues 54-557 of sequence number 15), FLAG-EGFP fused at the N terminus”, the half-life amounted to 0.246 s. Substance “Paxillin full length (FL) (full length of sequence number 15, residues 1-557), FLAG-EGFP fused at the N terminus” displayed a half-life of 0.196 s. Consider “phosphatidylinositol-(4)-phosphate 5-kinase type Iγ-90 (PIPKIγ) fragment (641-668) (sequence number 18), N terminus tagged with FLAG-EGFP”, for which the half-life turned out to be 0.496 s.

The half-life is the time needed for the level to fall by half in the phase considered. Lower therefore signals rapid decline.
